Results as given in publication PMC8511477 (Synthetic Biology, 2021).

Columns and labels:
Settings in all cases: 2.5 mM ATP, 0.5 mM CoA, 5 mM MgCl2, pH 7.5, 37 °C
ArACS = system: T1, ArACS; assay: myokinase/pyruvate kinase/lactate dehydrogenase coupled NADH assay, […] nm; assay type: biochemical
T1 construct: gene acs; C-terminal 6xHis (pET29b+), expressed in E. coli BL21*(DE3) delta-patZ, Ni-NTA purified; species only in supplement

EcACS = target: T2, EcACS (Escherichia coli, UniProt P27550)
T2 construct: gene acs

purified protein [1] = substrate: O=CO; assay: purified protein
purified protein [2] = substrate: CC(=O)O; assay: purified protein

`O=CO` [formate] showed a Km (ArACS) of 38.5 ± 19.3 mM.

For `CC(=O)O` [acetate], the km (EcACS) was “We assayed these homologs using formate as well as acetate, the likely native substrate”.

B1: EcACS (Escherichia coli K-12) (protein)
chain: MSQIHKHTIPANIADRCLINPQQYEAMYQQSINVPDTFWGEQGKILDWIKPYQKVKNTSFAPGNVSIKWYEDGTLNLAANCLDRHLQENGDRTAIIWEGDDASQSKHISYKELHRDVCRFANTLLELGIKKGDVVAIYMPMVPEAAVAMLACARIGAVHSVIFGGFSPEAVAGRIIDSNSRLVITSDEGVRAGRSIPLKKNVDDALKNPNVTSVEHVVVLKRTGGKIDWQEGRDLWWHDLVEQASDQHQAEEMNAEDPLFILYTSGSTGKPKGVLHTTGGYLVYAALTFKYVFDYHPGDIYWCTADVGWVTGHSYLLYGPLACGATTLMFEGVPNWPTPARMAQVVDKHQVNILYTAPTAIRALMAEGDKAIEGTDRSSLRILGSVGEPINPEAWEWYWKKIGNEKCPVVDTWWQTETGGFMITPLPGATELKAGSATRPFFGVQPALVDNEGNPLEGATEGSLVITDSWPGQARTLFGDHERFEQTYFSTFKNMYFSGDGARRDEDGYYWITGRVDDVLNVSGHRLGTAEIESALVAHPKIAEAAVVGIPHNIKGQAIYAYVTLNHGEEPSPELYAEVRNWVRKEIGPLATPDVLHWTDSLPKTRSGKIMRRILRKIAAGDTSNLGDTSTLADPGVVEKLLEEKQAIAMPS
Molecule B1 has a Km (purified protein [1]) of 54.4 ± 14.9 mM.

B2: MhACS (Marinithermus hydrothermalis DSM 14884) (protein)
chain: MERIEAVLKENRRFEPPEEFRKRARIQSEAEYEALYRESLEDPEAFWGRVAEELHWFEPWTQVLEWNPPHARWFVNGKTNLSYNALDRHVATWRKNKAAIIWEGEPGEERVLTYHDLWREVQRFANALKQLGVGKGDRVTIYMPMIPETAIAMLACARIGAVHSVVFGGFSANALAERIKDAEAKLLITADGGYRRGRVVPLKAQADEALAETPSVEHVVVVRRTGEAVPMQPGRDHWYHELVESVPDHCPPEVMDAEDPLFILYTSGSTGKPKGVLHTTGGYMVYTYLTTKLVFDLKDEDTYWCTADVGWITGHSYIVYGPLVNGATTLMYEGAPNHPEPDRFWRIVDKYGVTIFYTAPTAIRAFMKWGEAWPRKHRLDSLRLLGTVGEPINPEAWLWYHQVIGQGRCPIVDTWWQTETGGIMITTLPGAHAAKPGFAGKPFFGVAPEIRDAEGNRVETPEEGGYLVLTRPWPSMLRTVWGDPERYRRQYWSQYPDAYFTGDGARRDADGYYLILGRVDDVLNVAGHRLGTMELESALVSHPDVAEAAVVGRPHPEKGEAIVAFVTLKSHARPSEALREALKAHVANTIGPIARPDEIRFAEALPKTRSGKIMRRLLRQIAAGETEIKGDTSTLEDREVVEQLKRGE
B2 gave a Km (purified protein [2]) of 0.089 ± 0.060 mM and a kcat (purified protein [2]) of 15.1 s⁻¹.
